From the supplement of paper PMC9732359
± gives the uncertainty stated by the source.

Assay: protein stability index of a GFP-peptide fusion (yeast GPS) (PSI 1-4); higher = more stable; sorted into four equal gates, so the index is relative within each strain
Outline: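 Tiled 17-residue peptides from yeast proteins were fused downstream of GFP on a plasmid that also expresses Cherry, and the pooled library was carried in yeast. Mid-log cultures grown in leucine-free medium were sorted into four equal gates by GFP/Cherry fluorescence ratio. Plasmids from each gate were PCR-amplified and Illumina-sequenced, and reads were assigned to strains by barcodes. Each peptide's protein stability index is the sum, over gates, of the gate's read frequency multiplied by its gate number.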

Row | Sequence | protein stability index (doa10∆) | protein stability index (pdr5∆) | protein stability index (san1∆) | protein stability index (ubr1∆)
1 | SINATALAFGYVKSLHK [SIN4] | 3.51 ± 0.21 | 2.92 ± 0.12 | 3.1 ± 0.22 | 3.08 ± 0.08
2 | RFRGKRVVYLKHLEDNT [RPL6A] | 2.21 ± 0.068 | 2.37 ± 0.053 | 2.15 ± 0.1 | 2.31 ± 0.049
3 | FPPGVIGIDEGSDEAYV [RPC40] | 3.59 ± 0.091 | 3.41 ± 0.085 | 3.29 ± 0.077 | 3.51 ± 0.056
4 | EPIKVNVRVGQAVETVG [RPN1] | 1.41 ± 0.16 | 2.26 ± 0.11 | 2.47 ± 0.11 | 2.44 ± 0.15
5 | GTGKTLLAKAVANQTSA [RPT2] | 1.96 ± 0.085 | 1.95 ± 0.1 | 2.72 ± 0.16 | 1.89 ± 0.092
6 | EQRHLKRELKRAQEEVK [RPT3] | 3.13 ± 0.077 | 3.37 ± 0.12 | 2.95 ± 0.089 | 3.17 ± 0.078
7 | HINKKSQLDLFLRTMKL [GRR1] | 1.94 ± 0.067 | 2.33 ± 0.076 | 1.21 ± 0.11 | 2.02 ± 0.1
8 | TNKDIICQIISSTITGD [RPL5] | 2.6 ± 0.055 | 2.13 ± 0.057 | 2.94 ± 0.1 | 2.24 ± 0.055
9 | QHHVTDADKLSFNCENF [YML031W/NDC1] | 2.45 ± 0.065 | 2.28 ± 0.053 | 2.3 ± 0.058 | 2.2 ± 0.058
10 | PNLGPQLWLNSSGDFDD [GRR1] | 2.97 ± 0.16 | 3.16 ± 0.22 | – | –
11 | FVHSVKKFLRVRIFTKI [SRB4] | 2.21 ± 0.082 | 2.07 ± 0.072 | 1.22 ± 0.12 | 2.07 ± 0.059
12 | KNTIDFERFPSPSTSAN [RPN4] | 2.87 ± 0.09 | 2.95 ± 0.064 | 2.72 ± 0.082 | 3.03 ± 0.056
13 | RIGVLQARMMQQQSADH [NSL1] | 2.88 ± 0.062 | 3.06 ± 0.057 | 3.06 ± 0.046 | 2.96 ± 0.042
14 | GEDFMEVDYEDKDNPVD [SRB4] | 3.56 ± 0.12 | 2.96 ± 0.24 | 3.46 ± 0.15 | 3.32 ± 0.17
15 | KFMTNSTAFVPTIEYVQ [ARP9] | 2.22 ± 0.062 | 2.65 ± 0.048 | 2.83 ± 0.076 | 2.62 ± 0.041
16 | LYQIWIVMVWLKENTYV [YDL116W/NUP84] | 1.85 ± 0.061 | 1.77 ± 0.062 | 2.11 ± 0.097 | 2.14 ± 0.046
17 | ALHYLVPFIIAAMVIMH [COB] | 1.73 ± 0.066 | 1.29 ± 0.061 | 1.61 ± 0.15 | 1.4 ± 0.055
18 | TKFLAKNGVIPEESKGS [SWP82] | 3.19 ± 0.096 | 3.16 ± 0.11 | 2.98 ± 0.15 | 3.45 ± 0.13
19 | FSRHAQQQTSTFNSKPV [SIR4] | 2.38 ± 0.056 | 2.82 ± 0.058 | 2.07 ± 0.076 | 2.38 ± 0.047
20 | ATSFSRKKARTFDSSWN [FAS2] | 2.22 ± 0.17 | 2.99 ± 0.18 | 2.65 ± 0.16 | 3.05 ± 0.076

Row | Sequence | protein stability index (doa10∆) | protein stability index (pdr5∆) | protein stability index (san1∆) | protein stability index (ubr1∆)
21 | AFYQKGNKLVELMRIIS [SMC1] | 1.59 ± 0.27 | 1.15 ± 0.19 | – | 1.38 ± 0.25
22 | DEDEDEDEDDDDDDDED [QCR6] | 2.25 ± 0.039 | 1.96 ± 0.036 | 2.05 ± 0.047 | 1.98 ± 0.05
23 | AAPKKTRKAVRPQKLRA [RPL6B] | 2.64 ± 0.11 | 2.61 ± 0.29 | 2.8 ± 0.16 | –
24 | AHNKPSLFSKIKTFFTQ [YAR002W/NUP60] | 2.37 ± 0.079 | 2.85 ± 0.076 | 2.66 ± 0.064 | 2.73 ± 0.065
25 | SKTLSLIQSYSLLDKPD [FAS1] | 2.18 ± 0.078 | 2.01 ± 0.057 | 2.12 ± 0.21 | 2.14 ± 0.074
26 | TVIPEDEEIIQLHFSLL [RPO21] | 2.64 ± 0.06 | 2.98 ± 0.067 | 2.98 ± 0.057 | 2.56 ± 0.086
27 | DLAMANSLRRVMIAEIP [RPB3] | 1.23 ± 0.061 | 1.36 ± 0.051 | 1.09 ± 0.18 | 1.44 ± 0.068
28 | LGNEKNQASTSKRVYKI [CDC53] | – | 2.83 ± 0.12 | 2.92 ± 0.096 | –
29 | DKILQLNDRFQTLSSHL [PGD1] | 2.46 ± 0.048 | 2.66 ± 0.042 | 2.55 ± 0.051 | 2.46 ± 0.058
30 | ESGLVNADLDVKDELMF [RPO21] | 3.16 ± 0.059 | 3.27 ± 0.06 | 3.23 ± 0.059 | 3.3 ± 0.038
31 | NNIIRIQQLISQFLKRV [SNF11] | 2.1 ± 0.039 | 2.14 ± 0.057 | 2.13 ± 0.065 | 2.3 ± 0.045
32 | LVNGFSQSQQKLLKEKV [MED2] | 2.03 ± 0.055 | 2.27 ± 0.068 | 2.41 ± 0.066 | 2.61 ± 0.052
33 | QKLHKVKKASGEIVSIN [RPL20A] | 2.98 ± 0.076 | 2.61 ± 0.057 | 3.07 ± 0.042 | 2.8 ± 0.056
34 | QKSSKENIENEEYVINL [ECM29] | 3.02 ± 0.1 | 3.32 ± 0.086 | 2.75 ± 0.082 | 3.02 ± 0.082
35 | MKRNCGQIITLFSSRRL [RMP1] | 2.3 ± 0.045 | 2.46 ± 0.053 | 2.42 ± 0.058 | 2.29 ± 0.071
36 | LLKLIEPYVAYGYPSYS [RPL7A] | 2.07 ± 0.05 | 2.22 ± 0.053 | 2.2 ± 0.056 | 2.07 ± 0.042
37 | EAMLRENIEVILSNGRM [SNF12] | 2.79 ± 0.063 | 2.82 ± 0.061 | 2.86 ± 0.046 | 2.75 ± 0.059
38 | TEKLKISPESVFGTLGE [SMC3] | 1.99 ± 0.087 | 2.34 ± 0.066 | 2.09 ± 0.095 | 1.99 ± 0.032
39 | CYEKVLESINEGNQIIV [BRR2] | 3.09 ± 0.11 | 2.59 ± 0.11 | 2.05 ± 0.093 | 2.34 ± 0.1
